This note sets out measurements from article PMC11066007, “CORVET-specific subunit levels determine the balance between HOPS/CORVET endosomal tethering complexes” (Scientific Reports, 2024).

In experiment [1] the target is T1, VPS8-FLAG (human, UniProt Q8N3P4 1-1428).
T1 construct: VPS8, human, CORVET-specific subunit; DNA region encoding the full-length protein fused with a FLAG tag; also called CORVET-specific VPS8; source: HEK293, stably transfected (pCMV3), in lysate; not shown: FLAG, C-terminal, kept
T1 sequence (looked up): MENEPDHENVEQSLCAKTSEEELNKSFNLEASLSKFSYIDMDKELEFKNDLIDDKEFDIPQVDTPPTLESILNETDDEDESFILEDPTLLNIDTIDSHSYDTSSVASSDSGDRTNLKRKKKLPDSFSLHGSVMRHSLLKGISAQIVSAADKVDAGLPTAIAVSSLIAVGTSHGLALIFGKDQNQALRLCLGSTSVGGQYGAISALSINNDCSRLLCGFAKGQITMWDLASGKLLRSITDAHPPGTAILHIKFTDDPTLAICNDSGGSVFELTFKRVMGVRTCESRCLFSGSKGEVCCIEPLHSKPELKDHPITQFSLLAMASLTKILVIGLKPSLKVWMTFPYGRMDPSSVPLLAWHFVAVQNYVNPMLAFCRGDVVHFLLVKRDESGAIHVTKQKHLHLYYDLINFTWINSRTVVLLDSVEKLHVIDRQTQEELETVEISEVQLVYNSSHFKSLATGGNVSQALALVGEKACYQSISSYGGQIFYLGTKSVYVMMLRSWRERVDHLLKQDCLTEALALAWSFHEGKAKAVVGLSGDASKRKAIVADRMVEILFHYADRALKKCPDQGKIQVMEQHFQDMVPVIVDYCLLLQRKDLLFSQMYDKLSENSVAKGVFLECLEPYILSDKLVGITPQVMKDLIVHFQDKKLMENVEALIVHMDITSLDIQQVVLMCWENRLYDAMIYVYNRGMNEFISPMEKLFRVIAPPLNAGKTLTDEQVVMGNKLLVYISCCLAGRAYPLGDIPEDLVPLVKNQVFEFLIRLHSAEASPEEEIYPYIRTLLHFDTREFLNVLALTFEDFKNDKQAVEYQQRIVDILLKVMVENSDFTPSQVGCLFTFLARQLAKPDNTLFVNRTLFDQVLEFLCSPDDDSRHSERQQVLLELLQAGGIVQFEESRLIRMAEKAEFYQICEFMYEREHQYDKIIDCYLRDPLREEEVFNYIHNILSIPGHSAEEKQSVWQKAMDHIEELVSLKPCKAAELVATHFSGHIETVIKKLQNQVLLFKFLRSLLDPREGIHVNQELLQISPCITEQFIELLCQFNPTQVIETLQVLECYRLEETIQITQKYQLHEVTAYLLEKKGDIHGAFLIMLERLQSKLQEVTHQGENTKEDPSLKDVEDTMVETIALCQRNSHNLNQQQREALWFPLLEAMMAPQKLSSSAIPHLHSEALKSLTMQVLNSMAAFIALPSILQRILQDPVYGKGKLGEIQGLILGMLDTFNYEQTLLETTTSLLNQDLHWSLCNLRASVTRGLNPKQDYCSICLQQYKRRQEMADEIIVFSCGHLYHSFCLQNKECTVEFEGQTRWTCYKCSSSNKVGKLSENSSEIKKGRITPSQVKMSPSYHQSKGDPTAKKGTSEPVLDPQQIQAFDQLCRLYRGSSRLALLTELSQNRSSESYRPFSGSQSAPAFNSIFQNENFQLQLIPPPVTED
Nature of the experiment: co-IP; anti-FLAG beads on total lysates of HEK293 cells stably transfected with a FLAG-tagged specific subunit, with or without transient overexpression of the counterpart subunit (control: pCMV); endogenous VPS11 and VPS18 detected by western blot, densitometry with ImageJ; lysis buffer 50 mM TRIS-HCl pH 7.5, 150 mM NaCl, 1% Triton X-100, 5 mM EDTA; 1.5 h at 4 °C. The following applies: partners not purified. For orientation: A western blot detects proteins with antibodies after separation by electrophoresis.

The target in experiment [2] is T2, Tgfbrap1-FLAG (human, UniProt Q8WUH2 1-860).
T2 construct: Tgfbrap1, human, CORVET-specific subunit; DNA region encoding the full-length protein fused with a FLAG tag; also called CORVET-specific Tgfbrap1; not shown: FLAG, C-terminal, kept
T2 sequence (looked up): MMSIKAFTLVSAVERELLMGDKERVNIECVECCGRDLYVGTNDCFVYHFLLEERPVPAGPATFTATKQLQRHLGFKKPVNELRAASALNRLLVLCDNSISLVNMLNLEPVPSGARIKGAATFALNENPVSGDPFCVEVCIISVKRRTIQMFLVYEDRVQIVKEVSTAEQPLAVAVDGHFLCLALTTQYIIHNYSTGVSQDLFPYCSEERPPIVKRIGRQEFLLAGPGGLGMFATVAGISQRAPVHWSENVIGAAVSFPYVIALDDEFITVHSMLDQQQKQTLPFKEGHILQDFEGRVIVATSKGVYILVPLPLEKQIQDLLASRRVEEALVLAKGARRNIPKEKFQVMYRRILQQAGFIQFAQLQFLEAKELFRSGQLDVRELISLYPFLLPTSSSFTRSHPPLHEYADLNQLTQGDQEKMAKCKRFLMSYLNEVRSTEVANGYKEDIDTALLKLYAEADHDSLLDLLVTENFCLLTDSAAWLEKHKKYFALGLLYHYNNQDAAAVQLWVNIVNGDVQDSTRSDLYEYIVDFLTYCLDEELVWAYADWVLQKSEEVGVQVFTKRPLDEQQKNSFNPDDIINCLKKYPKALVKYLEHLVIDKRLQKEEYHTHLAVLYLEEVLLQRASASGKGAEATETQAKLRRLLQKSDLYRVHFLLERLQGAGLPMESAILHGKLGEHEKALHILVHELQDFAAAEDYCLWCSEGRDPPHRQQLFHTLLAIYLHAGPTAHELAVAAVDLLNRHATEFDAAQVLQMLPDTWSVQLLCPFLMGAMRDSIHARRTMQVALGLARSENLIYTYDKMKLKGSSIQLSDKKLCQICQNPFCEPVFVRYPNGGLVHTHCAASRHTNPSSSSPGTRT
The experiment is described as above. The following applies: partners not purified.

B1: VPS18 (natural protein, human (endogenous in HEK293), UniProt Q9P253 1-973, looked up)
chain: MASILDEYENSLSRSAVLQPGCPSVGIPHSGYVNAQLEKEVPIFTKQRIDFTPSERITSLVVSSNQLCMSLGKDTLLRIDLGKANEPNHVELGRKDDAKVHKMFLDHTGSHLLIALSSTEVLYVNRNGQKVRPLARWKGQLVESVGWNKALGTESSTGPILVGTAQGHIFEAELSASEGGLFGPAPDLYFRPLYVLNEEGGPAPVCSLEAERGPDGRSFVIATTRQRLFQFIGRAAEGAEAQGFSGLFAAYTDHPPPFREFPSNLGYSELAFYTPKLRSAPRAFAWMMGDGVLYGALDCGRPDSLLSEERVWEYPEGVGPGASPPLAIVLTQFHFLLLLADRVEAVCTLTGQVVLRDHFLEKFGPLKHMVKDSSTGQLWAYTERAVFRYHVQREARDVWRTYLDMNRFDLAKEYCRERPDCLDTVLAREADFCFRQRRYLESARCYALTQSYFEEIALKFLEARQEEALAEFLQRKLASLKPAERTQATLLTTWLTELYLSRLGALQGDPEALTLYRETKECFRTFLSSPRHKEWLFASRASIHELLASHGDTEHMVYFAVIMQDYERVVAYHCQHEAYEEALAVLARHRDPQLFYKFSPILIRHIPRQLVDAWIEMGSRLDARQLIPALVNYSQGGEVQQVSQAIRYMEFCVNVLGETEQAIHNYLLSLYARGRPDSLLAYLEQAGASPHRVHYDLKYALRLCAEHGHHRACVHVYKVLELYEEAVDLALQVDVDLAKQCADLPEEDEELRKKLWLKIARHVVQEEEDVQTAMACLASCPLLKIEDVLPFFPDFVTIDHFKEAICSSLKAYNHHIQELQREMEEATASAQRIRRDLQELRGRYGTVEPQDKCATCDFPLLNRPFYLFLCGHMFHADCLLQAVRPGLPAYKQARLEELQRKLGAAPPPAKGSARAKEAEGGAATAGPSREQLKADLDELVAAECVYCGELMIRSIDRPFIDPQRYEEEQLSWL
notes: VPS18, shared class C core subunit of HOPS and CORVET, detected by anti-VPS18 western blot in anti-FLAG precipitates; also called core subunit VPS18; source: endogenous, HEK293 lysate
Turning to B1, the “relative amount bound with Vps41-HA overexpressed (control cells HEK + pCMV as reference)” value in experiment [1] is 1.21 relative to control cells. For the same molecule, in experiment [2], the “relative amount bound with Vps39-HA overexpressed (control cells HEK + pCMV as reference)” value is 1.31 relative to control cells.

B2: VPS11 (natural protein, human (endogenous in HEK293), UniProt Q9H270 1-941, looked up)
chain: MAAYLQWRRFVFFDKELVKEPLSNDGAAPGATPASGSAASKFLCLPPGITVCDSGRGSLVFGDMEGQIWFLPRSLQLTGFQAYKLRVTHLYQLKQHNILASVGEDEEGINPLVKIWNLEKRDGGNPLCTRIFPAIPGTEPTVVSCLTVHENLNFMAIGFTDGSVTLNKGDITRDRHSKTQILHKGNYPVTGLAFRQAGKTTHLFVVTTENVQSYIVSGKDYPRVELDTHGCGLRCSALSDPSQDLQFIVAGDECVYLYQPDERGPCFAFEGHKLIAHWFRGYLIIVSRDRKVSPKSEFTSRDSQSSDKQILNIYDLCNKFIAYSTVFEDVVDVLAEWGSLYVLTRDGRVHALQEKDTQTKLEMLFKKNLFEMAINLAKSQHLDSDGLAQIFMQYGDHLYSKGNHDGAVQQYIRTIGKLEPSYVIRKFLDAQRIHNLTAYLQTLHRQSLANADHTTLLLNCYTKLKDSSKLEEFIKKKSESEVHFDVETAIKVLRQAGYYSHALYLAENHAHHEWYLKIQLEDIKNYQEALRYIGKLPFEQAESNMKRYGKILMHHIPEQTTQLLKGLCTDYRPSLEGRSDREAPGCRANSEEFIPIFANNPRELKAFLEHMSEVQPDSPQGIYDTLLELRLQNWAHEKDPQVKEKLHAEAISLLKSGRFCDVFDKALVLCQMHDFQDGVLYLYEQGKLFQQIMHYHMQHEQYRQVISVCERHGEQDPSLWEQALSYFARKEEDCKEYVAAVLKHIENKNLMPPLLVVQTLAHNSTATLSVIRDYLVQKLQKQSQQIAQDELRVRRYREETTRIRQEIQELKASPKIFQKTKCSICNSALELPSVHFLCGHSFHQHCFESYSESDADCPTCLPENRKVMDMIRAQEQKRDLHDQFQHQLKCSNDSFSVIADYFGRGVFNKLTLLTDPPTARLTSSLEAGLQRDLLMHSRRGT
notes: VPS11, shared class C core subunit of HOPS and CORVET, detected by anti-VPS11 western blot in anti-FLAG precipitates; also called core subunit VPS11; source: endogenous, HEK293 lysate
With B2, in experiment [1], the “relative amount bound with Vps41-HA overexpressed (control cells HEK + pCMV as reference)” value was 1.52 relative to control cells. In experiment [2], the “relative amount bound with Vps39-HA overexpressed (control cells HEK + pCMV as reference)” value was 1.05 relative to control cells.
